We go through 5 substances from patent US20190127480A1.

Assay [1] deals with human CD3 expressed on cells (Jurkat cells; human T-cells of PBMC) (human) (UniProt P09693). Put plainly: cell-based or functional assay.
For assay [2] the target is unchanged. The assay is described as follows: FACS titration on Jurkat cells (CD3+ human T-cell line).
For assay [3], the target named is cynomolgus monkey CD3 expressed on monkey T-cells (PBMCs) (cynomolgus monkey) (UniProt Q95LI5). The assay is described as follows: cell-based or functional assay.
Chain of cynomolgus monkey CD3 expressed on monkey T-cells (PBMCs) (cynomolgus monkey) (Q95LI5 22-198, chain 1 of 2): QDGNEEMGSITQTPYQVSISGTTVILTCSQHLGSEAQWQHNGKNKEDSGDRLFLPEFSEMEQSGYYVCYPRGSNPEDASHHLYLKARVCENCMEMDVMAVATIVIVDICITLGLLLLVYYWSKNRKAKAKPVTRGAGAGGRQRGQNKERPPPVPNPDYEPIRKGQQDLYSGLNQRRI
Chain of cynomolgus monkey CD3 expressed on monkey T-cells (PBMCs) (cynomolgus monkey) (Q95LI8 22-171, chain 2 of 2, further chain): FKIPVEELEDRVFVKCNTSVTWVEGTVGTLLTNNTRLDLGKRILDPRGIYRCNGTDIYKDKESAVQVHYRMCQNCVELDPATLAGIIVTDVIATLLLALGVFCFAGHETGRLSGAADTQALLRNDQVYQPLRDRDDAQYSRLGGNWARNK
Assay [4] shares this target. The assay is described as follows: FACS titration on monkey PBMCs, gated on CD2+CD4+ T cells.

Chain of human CD3 expressed on cells (Jurkat cells; human T-cells of PBMC) (human) (chain, as listed by the source, chain 1 of 4): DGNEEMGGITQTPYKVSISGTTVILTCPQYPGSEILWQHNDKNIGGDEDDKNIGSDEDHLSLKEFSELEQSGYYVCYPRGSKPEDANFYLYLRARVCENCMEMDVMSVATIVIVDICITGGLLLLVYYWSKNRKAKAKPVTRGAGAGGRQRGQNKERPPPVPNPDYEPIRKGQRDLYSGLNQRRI
Chain of human CD3 expressed on cells (Jurkat cells; human T-cells of PBMC) (human) (chain, as listed by the source, chain 2 of 4): as the sequence (Q95LI8 22-171, chain 2 of 2, further chain) above, with V5I, K15N, V20I, T32S, N33D, N34I, A64T, N74S, L83V, R141H counted along it
Chain of human CD3 expressed on cells (Jurkat cells; human T-cells of PBMC) (human) (P09693 23-182, chain 3 of 4): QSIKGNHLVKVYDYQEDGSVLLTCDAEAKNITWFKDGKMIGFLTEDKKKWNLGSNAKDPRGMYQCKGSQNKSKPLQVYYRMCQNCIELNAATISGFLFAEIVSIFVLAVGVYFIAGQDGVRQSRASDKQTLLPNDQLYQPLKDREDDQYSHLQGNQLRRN
Chain of human CD3 expressed on cells (Jurkat cells; human T-cells of PBMC) (human) (P20963 22-164, chain 4 of 4): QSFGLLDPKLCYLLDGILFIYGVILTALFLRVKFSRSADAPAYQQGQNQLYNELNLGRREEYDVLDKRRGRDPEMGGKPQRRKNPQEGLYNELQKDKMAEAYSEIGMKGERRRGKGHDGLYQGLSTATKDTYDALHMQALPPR

Broadly, the EC50 is the concentration at which the effect is half-maximal. “OKT-3, mouse monoclonal antibody against human T-cell surface antigens (ATCC CRL-8001)”: in assay [1], the EC50 [M] hPBMC Proliferation was 3.3e-13 M and the U937 Cytotoxicity Human T-cells stood at 2.35 pM. This substance also returned an EC50 in assay [2] of 0.196 nM.

In assay [1], “Isotype Ctrl (irrelevant isotype matched antibody, hybridoma mAb table)” gave a U937 Cytotoxicity Human T-cells of 0 pM.

Take “Isotype Ctrl (irrelevant isotype matched antibody, monovalent 1-arm mAb tables)”: the U937 Cytotoxicity Human T-cells in assay [1] worked out at 0 pM.

In assay [3], “SP34, commercially available mouse monoclonal antibody reactive against the epsilon chain of the T3 complex on human T lymphocyte cells” gave an EC50 [M] mfPBMC Proliferation of 1.71e-12 M. The substance also registered an EC50 in assay [4] of 0.0703 nM.

In turn, “Isotype Ctrl (irrelevant isotype matched antibody, human Fc mAb tables)” returned a U937 Cytotoxicity Human T-cells in assay [1] of 0 pM.
